Patent US20200255860, “A STRONG INSULATOR AND USES […] IN GENE DELIVERY” (CHILDREN'S HOSPITAL MEDICAL CENTER, published 2020)
Numbering of substitutions follows the chain as printed.

T1: CTCF (Homo sapiens, UniProt P49711 P49711:1-727)
T1 sequence: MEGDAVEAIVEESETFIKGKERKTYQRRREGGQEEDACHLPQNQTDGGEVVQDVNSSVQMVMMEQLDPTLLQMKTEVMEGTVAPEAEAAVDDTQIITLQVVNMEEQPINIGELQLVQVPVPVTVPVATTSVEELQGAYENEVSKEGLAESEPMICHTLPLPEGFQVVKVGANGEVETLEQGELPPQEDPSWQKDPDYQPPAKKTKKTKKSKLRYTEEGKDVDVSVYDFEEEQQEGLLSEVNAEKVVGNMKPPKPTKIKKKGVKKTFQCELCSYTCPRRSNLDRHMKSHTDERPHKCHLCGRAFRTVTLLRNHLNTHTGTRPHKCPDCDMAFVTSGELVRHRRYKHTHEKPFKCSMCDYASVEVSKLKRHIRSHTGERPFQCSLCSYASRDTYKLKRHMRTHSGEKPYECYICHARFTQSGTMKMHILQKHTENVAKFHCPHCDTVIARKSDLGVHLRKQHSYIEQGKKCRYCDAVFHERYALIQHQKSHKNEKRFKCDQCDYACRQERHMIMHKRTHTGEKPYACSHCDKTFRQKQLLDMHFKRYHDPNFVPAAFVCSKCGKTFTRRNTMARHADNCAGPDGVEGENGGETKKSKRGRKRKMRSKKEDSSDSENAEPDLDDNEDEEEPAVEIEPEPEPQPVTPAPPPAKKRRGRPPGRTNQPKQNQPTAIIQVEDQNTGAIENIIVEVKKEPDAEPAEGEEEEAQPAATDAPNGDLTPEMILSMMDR

B1: LV2 probe (dsDNA)
DNA 1: GATACCTAAAGGATCAACAGCTCCTGGGGATTTGGGGTTGCTCTGGAAAACTCATTTGCACCACTGCTGTGCCTTGGAATGCT
DNA 2: AGCATTCCAAGGCACAGCAGTGGTGCAAATGAGTTTTCCAGAGCAACCCCAAATCCCCAGGAGCTGTTGATCCTTTAGGTATC
B2: LV3 probe (dsDNA)
DNA 1: GTCGGGGAAGCTGACGTCCTTTCGAATTCGATATCAAGCTGTACCTTTAAGACCAATGACTTACAAGGCAGCTGTAGATC
DNA 2: GATCTACAGCTGCCTTGTAAGTCATTGGTCTTAAAGGTACAGCTTGATATCGAATTCGAAAGGACGTCAGCTTCCCCGAC
B3: FV2 probe (dsDNA)
DNA 1: AGTAAAAGGATTTGTATATTAGCCTTGCTAAGGGAGACATCTAGTGATATAAGTGTGAACTACACTTATCTTAAATGATG
DNA 2: CATCATTTAAGATAAGTGTAGTTCACACTTATATCACTAGATGTCTCCCTTAGCAAGGCTAATATACAAATCCTTTTACT
B4: FV2 mutant 4 (dsDNA)
DNA 1: B3 DNA 1 with T19G, T20G, A21C, G22T, C23T, C24T, T25A, G27A, C28T, T29C
DNA 2: B3 DNA 2 with A52G, G53A, C54T, A56T, G57A, G58A, C59A, T60G, A61C, A62C
B5: LV1 probe (dsDNA)
DNA 1: ACAAGATAGAGGAAGAGCAAAACAAAAGTAAGACCACCGCACAGCAAGCGGCCGCTGATCTTCAGACCTGGAGGAGGAGATATGAGGGA
DNA 2: TCCCTCATATCTCCTCCTCCAGGTCTGAAGATCAGCGGCCGCTTGCTGTGCGGTGGTCTTACTTTTGTTTTGCTCTTCCTCTATCTTGT

Experiments:
Details in all cases: tags: full-length, Abnova; label: IRDye700 5' both strands
[1] = biological target: T1, CTCF; experiment: EMSA; no LV probe bound
[2] = biological target: T1, CTCF; experiment: EMSA; 20 mM HEPES pH 7.5, 50 mM KCl, 5 mM MgCl2, 3.3 uM ZnSO4, poly(dI:dC), room temp; competed by unlabeled H19
[3] = biological target: T1, CTCF; experiment: EMSA; region 4 mutated, no effect

| Binder | binding result [1] | also measured |
| --- | --- | --- |
| B1 | no binding |  |
| B2 | no binding |  |
| B3 |  | binding result [2]: binds |
| B4 |  | binding result [3]: binds |
| B5 | no binding |  |
